From patent publication US20210340217A1, “NOVEL PEPTIDES AND COMBINATION OF PEPTIDES FOR USE IN IMMUNOTHERAPY AGAINST OVARIAN CANCER AND OTHER CANCERS” (Immatics Biotechnologies GmbH, priority 2017, published 2021)

Key:
[1] = target: HLA-A*02:01 (Homo sapiens, UniProt P04439, D140Y/D185E/D98H/E176V/E277Q/G131W/G231S/I119V/I121R/I166T/I218V/L300P/L318F/N151K/N90K/P208A/P217A/Q86G/Q94H/R138H/R169H/T345S); assay: MHC binding assay (UV-ligand exchange, beta2m ELISA); conditions: peptide exchange yield
Procedure, shortened: (§1)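 Peptide–MHC complexes formed by UV-induced exchange of a UV-cleavable peptide for the test peptide. Exchange yield measured by streptavidin-capture ELISA detecting β2m (HRP anti-β2m, TMB, A450) on 100-fold diluted samples. Quantified against refolded HLA-A*02:01/MLA-001 standards (15-500 ng/ml).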

[2] = target: HLA-A*03:01 (Homo sapiens, UniProt P04439); assay: as above; conditions: peptide exchange yield
Procedure, shortened: as §1

Peptide exchange [1] | Peptide exchange [2] | Substance
+ (>10% = +) |  | 219 (PLPRPGAVL; listed as Homo sapiens) [compound 219]
+++ (>50 = +++) |  | 220 (RMTTQLLLL; listed as Homo sapiens) [compound 220]
++ (>20% = ++) |  | 221 (SLLDLYQL; listed as Homo sapiens) [compound 221]
++++ (>75% = ++++) |  | 222 (ALMRLIGCPL; listed as Homo sapiens) [compound 222]
+ (>10% = +) |  | 223 (FAHHGRSL; listed as Homo sapiens) [compound 223]
++++ (>75% = ++++) |  | 224 (SLPRFQVTL; listed as Homo sapiens) [compound 224]
+++ (>50 = +++) |  | 225 (SVFAHPRKL; listed as Homo sapiens) [compound 225]
+++ (>50 = +++) |  | 227 (YTFRYPLSL; listed as Homo sapiens) [compound 227]
++++ (>75% = ++++) |  | 228 (RLWDWVPLA; listed as Homo sapiens) [compound 228]
+ (>10% = +) |  | 229 (ISVPAKTSL; listed as Homo sapiens) [compound 229]
+++ (>50 = +++) |  | 231 (SVTESTHHL; listed as Homo sapiens) [compound 231]
++++ (>75% = ++++) |  | 232 (TISSLTHEL; listed as Homo sapiens) [compound 232]
++ (>20% = ++) |  | 234 (GVATRVDAI; listed as Homo sapiens) [compound 234]
+++ (>50 = +++) |  | 236 (SAIPFSMTL; listed as Homo sapiens) [compound 236]
++ (>20% = ++) |  | 241 (RQPNILVHL; listed as Homo sapiens) [compound 241]
 | ++ (>20% = ++) | 256 (RTEEVLLTFK; listed as Homo sapiens) [compound 256]
 | + (>10% = +) | 257 (VTADHSHVF; listed as Homo sapiens) [compound 257]
 | +++ (>50 = +++) | 258 (GAYAHTVNR; listed as Homo sapiens) [compound 258]
 | ++ (>20% = ++) | 259 (KTLELRVAY; listed as Homo sapiens) [compound 259]
 | +++ (>50 = +++) | 260 (GTNTVILEY; listed as Homo sapiens) [compound 260]
 | ++ (>20% = ++) | 261 (HTFGLFYQR; listed as Homo sapiens) [compound 261]
 | ++ (>20% = ++) | 262 (RSRLNPLVQR; listed as Homo sapiens) [compound 262]
 | ++ (>20% = ++) | 263 (SSSSATISK; listed as Homo sapiens) [compound 263]

Peptide exchange [1] | Peptide exchange [2] | Substance
 | ++ (>20% = ++) | 264 (AIKVIPTVFK; listed as Homo sapiens) [compound 264]
 | ++ (>20% = ++) | 265 (QIHDHVNPK; listed as Homo sapiens) [compound 265]
 | +++ (>50 = +++) | 266 (ISYSGQFLVK; listed as Homo sapiens) [compound 266]
 | ++ (>20% = ++) | 267 (VTDLISPRK; listed as Homo sapiens) [compound 267]
 | +++ (>50 = +++) | 269 (RLKGDAWVYK; listed as Homo sapiens) [compound 269]
 | ++ (>20% = ++) | 270 (AVFNPRFYRTY; listed as Homo sapiens) [compound 270]
 | +++ (>50 = +++) | 271 (RMFADDLHNLNK; listed as Homo sapiens) [compound 271]
 | ++ (>20% = ++) | 272 (RQPERTILRPR; listed as Homo sapiens) [compound 272]
 | +++ (>50 = +++) | 273 (RVNAIPFTY; listed as Homo sapiens) [compound 273]
 | + (>10% = +) | 274 (KTFPASTVF; listed as Homo sapiens) [compound 274]
 | ++ (>20% = ++) | 275 (STTFPTLTK; listed as Homo sapiens) [compound 275]
 | + (>10% = +) | 276 (VSKTTGMEF; listed as Homo sapiens) [compound 276]
 | + (>10% = +) | 277 (TTALKTTSR; listed as Homo sapiens) [compound 277]
 | ++ (>20% = ++) | 278 (NLSSITHER; listed as Homo sapiens) [compound 278]
 | ++ (>20% = ++) | 279 (SVSSETTKIKR; listed as Homo sapiens) [compound 279]
 | ++ (>20% = ++) | 280 (SVSGVKTTF; listed as Homo sapiens) [compound 280]
 | + (>10% = +) | 281 (RAKELEATF; listed as Homo sapiens) [compound 281]
 | ++ (>20% = ++) | 283 (IVQEPTEEK; listed as Homo sapiens) [compound 283]
 | ++ (>20% = ++) | 284 (KSLIKSWKK; listed as Homo sapiens) [compound 284]
 | ++ (>20% = ++) | 285 (GTVNPTVGK; listed as Homo sapiens) [compound 285]
 | ++ (>20% = ++) | 286 (TVAPPQGVVK; listed as Homo sapiens) [compound 286]
 | ++ (>20% = ++) | 287 (RRIHTGEKPYK; listed as Homo sapiens) [compound 287]

The next lines start with the substance.

Substance | Peptide exchange [1] | Peptide exchange [2]
1 (MIPTFTALL; listed as Homo sapiens) [compound 1] | +++ (>50 = +++) | 
2 (TLLKALLEI; listed as Homo sapiens) [compound 2] | ++++ (>75% = ++++) | 
3 (ALIYNLVGI; listed as Homo sapiens) [compound 3] | ++++ (>75% = ++++) | 
4 (ALFKAWAL; listed as Homo sapiens) [compound 4] | ++++ (>75% = ++++) | 
5 (RLLDFINVL; listed as Homo sapiens) [compound 5] | ++++ (>75% = ++++) | 
6 (SLGKHTVAL; listed as Homo sapiens) [compound 6] | +++ (>50 = +++) | 
7 (ALQAFEFRV; listed as Homo sapiens) [compound 7] | ++++ (>75% = ++++) | 
8 (YLVTKVVAV; listed as Homo sapiens) [compound 8] | ++++ (>75% = ++++) | 
9 (VLLAGFKPPL; listed as Homo sapiens) [compound 9] | + (>10% = +) | 
60 (GLLSLTSTLYL; listed as Homo sapiens) [compound 60] | ++++ (>75% = ++++) | 
61 (YMVHIQVTL; listed as Homo sapiens) [compound 61] | ++++ (>75% = ++++) | 
62 (KVLGVNVML; listed as Homo sapiens) [compound 62] | ++++ (>75% = ++++) | 
63 (MMEEMIFNL; listed as Homo sapiens) [compound 63] | ++++ (>75% = ++++) | 
64 (FLDPDRHFL; listed as Homo sapiens) [compound 64] | ++++ (>75% = ++++) | 
66 (GLLQELSSI; listed as Homo sapiens) [compound 66] | ++++ (>75% = ++++) | 
67 (SLLLPSIFL; listed as Homo sapiens) [compound 67] | ++++ (>75% = ++++) | 
68 (KLFDTQQFL; listed as Homo sapiens) [compound 68] | ++++ (>75% = ++++) | 

Substance | Peptide exchange [1] | Peptide exchange [2]
69 (TTYEGSITV; listed as Homo sapiens) [compound 69] | ++++ (>75% = ++++) | 
70 (VLQGLLRSL; listed as Homo sapiens) [compound 70] | ++++ (>75% = ++++) | 
71 (YLEDTDRNL; listed as Homo sapiens) [compound 71] | ++++ (>75% = ++++) | 
72 (YLTDLQVSL; listed as Homo sapiens) [compound 72] | ++++ (>75% = ++++) | 
73 (FLIEELLFA; listed as Homo sapiens) [compound 73] | ++++ (>75% = ++++) | 
75 (KVVSVLYNV; listed as Homo sapiens) [compound 75] | ++++ (>75% = ++++) | 
100 (RLFTSPIMTK; listed as Homo sapiens) [compound 100] |  | +++ (>50 = +++)
101 (RVFTSSIKTK; listed as Homo sapiens) [compound 101] |  | ++ (>20% = ++)
102 (SVLTSSLVK; listed as Homo sapiens) [compound 102] |  | ++ (>20% = ++)
104 (VLADSVTTK; listed as Homo sapiens) [compound 104] |  | ++ (>20% = ++)
105 (RLFSWLVNR; listed as Homo sapiens) [compound 105] |  | +++ (>50 = +++)
106 (AAFVPLLLK; listed as Homo sapiens) [compound 106] |  | ++ (>20% = ++)
107 (RLQEWKALK; listed as Homo sapiens) [compound 107] |  | +++ (>50 = +++)
109 (KTFTIKRFLAK; listed as Homo sapiens) [compound 109] |  | ++ (>20% = ++)
110 (SAAPPSYFR; listed as Homo sapiens) [compound 110] |  | ++ (>20% = ++)
216 (IMFDDAIERA; listed as Homo sapiens) [compound 216] | ++++ (>75% = ++++) | 
217 (VSSSLTLKV; listed as Homo sapiens) [compound 217] | + (>10% = +) | 
